# This sample holds only a part of the variants without activity.
# B1: TPR 5TU (parent)
# chain: GGAUCUUCUCGAUCUAACAAAAAAGACAAAUCUGCCACAAAGCUUGAGAGCAUCUUCGGAUGCAGAGGCGGCAGCCUUCGGUGGCGCGAUAGCGCCAACGUUCUCAACUAUGACACGCAAAACGCGUGCUCCGUUGAAUGGAGUUUAUCAUG
# Variants of: B1
# Experiment: polymerase ribozyme fitness, log enrichment relative to wild type (log ratio); higher = more active; in vitro selection for triplet polymerase activity
# Method in brief: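 Mutant libraries were PCR-built and transcribed for each subunit of a heterodimeric triplet polymerase ribozyme and selected for one round in triplicate at −7 °C, frozen, before gel excision of extended constructs and streptavidin-bead capture. Input and output libraries were Illumina-sequenced, keeping genotypes with ≥10 input reads and ≥1 read per output. Fitness is a logarithmic ratio of genotype to wild-type enrichment, in base 2, using inverse-variance-weighted replicate averages.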
row,Variant,polymerase ribozyme fitness (log ratio)
1,GGAUCUUCUCGAUCUAACAAAAAAGACAAAUCUGCCACAAAGCUUGAGAGCAUCUUCGGAUGCAGAGGCGGCAGCCUUCGGUGGCGCGAUAGCGCCAACGUUCUCAACUAUGACACGUAAAACGCGUGCUCCGUUGAAUGGAGUAUAUCAUG [C118U U145A],-0.179
2,GGAUCUUCUCGAUCUAACAAAAAAGACAAAUCUGCCACAAAGCUUGAGAGCAUCUUCGGAUGCAGAGGCGGCAGCCUUCGGUGGCGCGAUAGCGCCAACGUUCUCAACUAUGACACGUAAAACGCGUGCUCCGUUGAAUGGAGUUUAACAUG [C118U U148A],-2.79
3,GGAUCUUCUCGAUCUAACAAAAAAGACAAAUCUGCCACAAAGCUUGAGAGCAUCUUCGGAUGCAGAGGCGGCAGCCUUCGGUGGCGCGAUAGCGCCAACGUUCUCAACUAUGACACUCAAAACGCGUGCUCCGUUGAAUGGAUUUUAUCAUG [G117U G143U],-2.57
4,GGAUCUUCUCGAUCUAACAAAAAAGACAAAUCUGCCACAAAGCUUGAGAGCAUCUUCGGAUGCAGAGGCGGCAGCCUUCGGUGGCGCGAUAGCGCCAACGUUCUCAACUAUGACACGGAAAACGCGUGCUCCGUUGAAUGAAGUUUAUCAUG [C118G G141A],-0.0985
5,GGAUCUUCUCGAUCUAACAAAAAAGACAAAUCUGCCACAAAGCUUGAGAGCAUCUUCGGAUGCAGAGGCGGCAGCCUUCGGUGGCGCGAUAGCGCCAACGUUCUCAACUAUGACACGUAAAACGCGUGCUCCGUCGAAUGGAGUUUAUCAUG [C118U U135C],-2.19
6,GGAUCUUCUCGAUCUAACAAAAAAGACAAAUCUGCCACAAAGCUUGAGAGCAUCUUCGGAUGCAGAGGCGGCAGCCUUCGGUGGCGCGAUAGCGCCAACGUUCUCAACUAUGACAUGCAAAACACGUGCUCCGUUGAAUGGGGUUUAUCAUG [C116U G124A A142G],-2.45
7,GGAUCUUCUCGAUCUAACAAAAAAGACAAAUCUGCCACAAAGCUUGAGAGCAUCUUCGGAUGCAGAGGCGGCAGCCUUCGGUGGCGCGAUAGCGCCAACGUUCUCAACUAUGACACACAAAAAGCGUGCUCCGUUGAAUGGAGUUUAUCAUG [G117A C123A],0.34
8,GGAUCUUCUCGAUCUAACAAAAAAGACAAAUCUGCCACAAAGCUUGAGAGCAUCUUCGGAUGCAGAGGCGGCAGCCUUCGGUGGCGCGAUAGCGCCAACGUUCUCAACUAUGACAUGCAAAACGCGUGCUCCGUUGAAUGGAGAUUAUCAUG [C116U U144A],-0.259
9,GGAUCUUCUCGAUCUAACAAAAAAGACAAAUCUGCCACAAAGCUUGAGAGCAUCUUCGGAUGCAGAGGCGGCAGCCUUCGGUGGCGCGAUAGCGCCAACGUUCUCAACUAUGACACGGAAACCGCGUGCUCCGUUGAAUGGAGUUUAUCAUG [C118G A122C],-1.49
10,GGAUCUUCUCGAUCUAACAAAAAAGACAAAUCUGCCACAAAGCUUGAGAGCAUCUUCGGAUGCAGAGGCGGCAGCCUUCGGUGGCGCGAUAGCGCCAACGUUCUCAACUAUGACACGAUAAACGCGUGCUCCGUUGAAUGGAGUUUAUCAUG [C118A A119U],-0.617
11,GGAUCUUCUCGAUCUAACAAAAAAGACAAAUCUGCCACAAAGCUUGAGAGCAUCUUCGGAUGCAGAGGCGGCAGCCUUCGGUGGCGCGAUAGCGCCAACGUUCUCAACUAUGACACCCAGAACGCGUGCUCCGUUGAAUGGAGUUUAUCAUG [G117C A120G],0.308
12,GGAUCUUCUCGAUCUAACAAAAAAGACAAAUCUGCCACAAAGCUUGAGAGCAUCUUCGGAUGCAGAGGCGGCAGCCUUCGGUGGCGCGAUAGCGCCAACGUUCUCAACUAUGACACGAAAAACGCGUGCUCCGUUGAAUGGAGAUUAUCAUG [C118A U144A],0.0258
13,GGAUCUUCUCGAUCUAACAAAAAAGACAAAUCUGCCACAAAGCUUGAGAGCAUCUUCGGAUGCAGAGGCGGCAGCCUUCGGUGGCGCGAUAGCGCCAACGUUCUCAACUAUGACAUGCAAAACGGGUGCUCCGUUGAAUGGAGUUUAUCAUG [C116U C125G],1.23
14,GGAUCUUCUCGAUCUAACAAAAAAGACAAAUCUGCCACAAAGCUUGAGAGCAUCUUCGGAUGCAGAGGCGGCAGCCUUCGGUGGCGCGAUAGCGCCAACGUUCUCAACUAUGACACUCAAAACGCGUGCUCCGUUGAAUGGAGUGUAUCAUG [G117U U145G],-3.12
15,GGAUCUUCUCGAUCUAACAAAAAAGACAAAUCUGCCACAAAGCUUGAGAGCAUCUUCGGAUGCAGAGGCGGCAGCCUUCGGUGGCGCGAUAGCGCCAACGUUCUCAACUAUGACACGGUAAACGCGUGCUCCGUUGAAUGUAGUUUAUCAUG [C118G A119U G141U],-0.349
16,GGAUCUUCUCGAUCUAACAAAAAAGACAAAUCUGCCACAAAGCUUGAGAGCAUCUUCGGAUGCAGAGGCGGCAGCCUUCGGUGGCGCGAUAGCGCCAACGUUCUCAACUAUGACAUGAAAAACGCGUGCUCCGUUGAAGGGAGUUUAUCAUG [C116U C118A U139G],0.554
17,GGAUCUUCUCGAUCUAACAAAAAAGACAAAUCUGCCACAAAGCUUGAGAGCAUCUUCGGAUGCAGAGGCGGCAGCCUUCGGUGGCGCGAUAGCGCCAACGUUCUCAACUAUGACACGUAAAACGCGUGCUCCGUUGAAUGGCGUUUAUCAUG [C118U A142C],-0.682
18,GGAUCUUCUCGAUCUAACAAAAAAGACAAAUCUGCCACAAAGCUUGAGAGCAUCUUCGGAUGCAGAGGCGGCAGCCUUCGGUGGCGCGAUAGCGCCAACGUUCUCAACUAUGACAUGCAAAACGCGUGCUCCGUUGAAUGGUGUUUAUCAUG [C116U A142U],-0.344
19,GGAUCUUCUCGAUCUAACAAAAAAGACAAAUCUGCCACAAAGCUUGAGAGCAUCUUCGGAUGCAGAGGCGGCAGCCUUCGGUGGCGCGAUAGCGCCAACGUUCUCAACUAUGACAUGCAAAACGCGUGCUCCGCUGAAUGGAGUUUAUCAUG [C116U U134C],-0.00566

row,Variant,polymerase ribozyme fitness (log ratio)
1,GGAUCUUCUCGAUCUAACAAAAAAGACAAAUCUGCCACAAAGCUUGAGAGCAUCUUCGGAUGCAGAGGCGGCAGCCUUCGGUGGCGCGAUAGCGCCAACGUUCUCAACUAUGACACGAAACACGCGUGCUCCGUUGAAUGGAGCUUAUCAUG [C118A A121C U144C],-0.821
2,GGAUCUUCUCGAUCUAACAAAAAAGACAAAUCUGCCACAAAGCUUGAGAGCAUCUUCGGAUGCAGAGGCGGCAGCCUUCGGUGGCGCGAUAGCGCCAACGUUCUCAACUAUGACACACAAAAAGCGUGCUCCGUUGAAUGGAGUUUAUCGUG [G117A C123A A150G],-1.18
3,GGAUCUUCUCGAUCUAACAAAAAAGACAAAUCUGCCACAAAGCUUGAGAGCAUCUUCGGAUGCAGAGGCGGCAGCCUUCGGUGGCGCGAUAGCGCCAACGUUCUCAACUAUGACACGUAAAACGCGUGCUCCGUUGAAUGGAGUUCAUCAUG [C118U U146C],-1.27
4,GGAUCUUCUCGAUCUAACAAAAAAGACAAAUCUGCCACAAAGCUUGAGAGCAUCUUCGGAUGCAGAGGCGGCAGCCUUCGGUGGCGCGAUAGCGCCAACGUUCUCAACUAUGACACGUAAAACGCGUGCUCCGUUGAAUUGAGUUUAUCAUG [C118U G140U],-3.11
5,GGAUCUUCUCGAUCUAACAAAAAAGACAAAUCUGCCACAAAGCUUGAGAGCAUCUUCGGAUGCAGAGGCGGCAGCCUUCGGUGGCGCGAUAGCGCCAACGUUCUCAACUAUGACACGGAAACCGCGUGCUCCGUUGAAUGCAGUUUAUCAUG [C118G A122C G141C],-2.43
6,GGAUCUUCUCGAUCUAACAAAAAAGACAAAUCUGCCACAAAGCUUGAGAGCAUCUUCGGAUGCAGAGGCGGCAGCCUUCGGUGGCGCGAUAGCGCCAACGUUCUCAACUAUGACACGGAAAACGCGUGCUCCGUUGAAUGGAGAUUAUCAUG [C118G U144A],-0.0459
7,GGAUCUUCUCGAUCUAACAAAAAAGACAAAUCUGCCACAAAGCUUGAGAGCAUCUUCGGAUGCAGAGGCGGCAGCCUUCGGUGGCGCGAUAGCGCCAACGUUCUCAACUAUGACAUGCAAAACGCGUGCUCCGUAGAAUGGAGUUUAUCAUG [C116U U135A],-0.565
8,GGAUCUUCUCGAUCUAACAAAAAAGACAAAUCUGCCACAAAGCUUGAGAGCAUCUUCGGAUGCAGAGGCGGCAGCCUUCGGUGGCGCGAUAGCGCCAACGUUCUCAACUAUGACAUGCAAAUCGCGUGCUCCGUUGAAUGGAGUUUAUCAUG [C116U A122U],-0.326
9,GGAUCUUCUCGAUCUAACAAAAAAGACAAAUCUGCCACAAAGCUUGAGAGCAUCUUCGGAUGCAGAGGCGGCAGCCUUCGGUGGCGCGAUAGCGCCAACGUUCUCAACUAUGACAUGCAAAACGUGUGCUCCGUUGAAUGGAGUUCAUCAUG [C116U C125U U146C],-0.74
10,GGAUCUUCUCGAUCUAACAAAAAAGACAAAUCUGCCACAAAGCUUGAGAGCAUCUUCGGAUGCAGAGGCGGCAGCCUUCGGUGGCGCGAUAGCGCCAACGUUCUCAACUAUGACAUGCAAAACGCGUGCUCCGUUGAAUGGAGUUUAACAUG [C116U U148A],-3.85
11,GGAUCUUCUCGAUCUAACAAAAAAGACAAAUCUGCCACAAAGCUUGAGAGCAUCUUCGGAUGCAGAGGCGGCAGCCUUCGGUGGCGCGAUAGCGCCAACGUUCUCAACUAUGACACACAAAACGCGUGCUCCGUUGAAUGGUGUUUAUCAUG [G117A A142U],-4.13
12,GGAUCUUCUCGAUCUAACAAAAAAGACAAAUCUGCCACAAAGCUUGAGAGCAUCUUCGGAUGCAGAGGCGGCAGCCUUCGGUGGCGCGAUAGCGCCAACGUUCUCAACUAUGACAUGCAAAACGCGUGCUCCGUUGAAUGGAGUUCAUCAUG [C116U U146C],-0.11
13,GGAUCUUCUCGAUCUAACAAAAAAGACAAAUCUGCCACAAAGCUUGAGAGCAUCUUCGGAUGCAGAGGCGGCAGCCUUCGGUGGCGCGAUAGCGCCAACGUUCUCAACUAUGACACACAAAACGCGUGCUCCGUUGAAUGGAGCUUAUCAUG [G117A U144C],-2.9
14,GGAUCUUCUCGAUCUAACAAAAAAGACAAAUCUGCCACAAAGCUUGAGAGCAUCUUCGGAUGCAGAGGCGGCAGCCUUCGGUGGCGCGAUAGCGCCAACGUUCUCAACUAUGACACUCAAAACGCGUGCUCCGUUGGAUGGAGUUUAUCAUG [G117U A137G],-1.34
15,GGAUCUUCUCGAUCUAACAAAAAAGACAAAUCUGCCACAAAGCUUGAGAGCAUCUUCGGAUGCAGAGGCGGCAGCCUUCGGUGGCGCGAUAGCGCCAACGUUCUCAACUAUGACAUGCAAAACGCGUGCCCCGUUGAAUGGAGUUUAUCAUG [C116U U130C],1.13
16,GGAUCUUCUCGAUCUAACAAAAAAGACAAAUCUGCCACAAAGCUUGAGAGCAUCUUCGGAUGCAGAGGCGGCAGCCUUCGGUGGCGCGAUAGCGCCAACGUUCUCAACUAUGACAUGCAAAACGCGUGCUCCGUUGAAUGAAGUUUAUCAUG [C116U G141A],-1.01
17,GGAUCUUCUCGAUCUAACAAAAAAGACAAAUCUGCCACAAAGCUUGAGAGCAUCUUCGGAUGCAGAGGCGGCAGCCUUCGGUGGCGCGAUAGCGCCAACGUUCUCAACUAUGACACGGGAAACGCGUGCUCCGUUGAAUGGAGUUUAUCAUG [C118G A119G],0.312
18,GGAUCUUCUCGAUCUAACAAAAAAGACAAAUCUGCCACAAAGCUUGAGAGCAUCUUCGGAUGCAGAGGCGGCAGCCUUCGGUGGCGCGAUAGCGCCAACGUUCUCAACUAUGACACGGAAAACGCGUGUUCCGUUGAAUGGAGUUUAUCAUG [C118G C129U],-1.77
19,GGAUCUUCUCGAUCUAACAAAAAAGACAAAUCUGCCACAAAGCUUGAGAGCAUCUUCGGAUGCAGAGGCGGCAGCCUUCGGUGGCGCGAUAGCGCCAACGUUCUCAACUAUGACACGGAAAACGCGUGCUCCGUUGAAUGGAGUUUAUCGUG [C118G A150G],-2.14
